Substitutions are numbered along the chain they refer to. Like-named read-outs stand apart in the source and are kept apart here. Each block holds one binder with its values, some of them ahead of it.
Tests used:
[1] = target: T1, Rrp43 (subunit of Exo10 in the crystal structure) (S. cerevisiae, UniProt P25359); test: crystal structure
T1 sequence: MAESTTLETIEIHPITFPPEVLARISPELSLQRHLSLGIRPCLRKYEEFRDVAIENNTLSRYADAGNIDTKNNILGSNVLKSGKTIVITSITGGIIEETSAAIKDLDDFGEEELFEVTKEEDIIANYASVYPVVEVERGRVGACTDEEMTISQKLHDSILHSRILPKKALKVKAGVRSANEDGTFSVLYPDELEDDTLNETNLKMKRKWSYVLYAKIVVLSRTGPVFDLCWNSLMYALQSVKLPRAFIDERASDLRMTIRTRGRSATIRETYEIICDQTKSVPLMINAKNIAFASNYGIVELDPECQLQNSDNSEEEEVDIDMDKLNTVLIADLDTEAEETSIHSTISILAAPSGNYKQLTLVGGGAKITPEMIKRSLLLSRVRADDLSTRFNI

[2] = target: T2, S. cerevisiae Exo9 (nine-subunit exosome core, no Rrp44 subunit) (S. cerevisiae, UniProt P46948;Q05636;P53256;P25359;P48240;Q12277;P38792;Q08285;P53859); test: MST
[3] = target: T2, S. cerevisiae Exo9 (nine-subunit …); test: pull-down
[4] = target: T2, S. cerevisiae Exo9 (nine-subunit …); test: pull-down; remark: listed apart in the source

binding result [1]: binds
B1: Mtr3 (subunit of Exo10 in the crystal structure) (natural protein)
chain: MNVQDRRRLLGPAAAKPMAFSNTTTHVPEKKSTDLTPKGNESEQELSLHTGFIENCNGSALVEARSLGHQTSLITAVYGPRSIRGSFTSQGTISIQLKNGLLEKYNTNELKEVSSFLMGIFNSVVNLSRYPKSGIDIFVYLTYDKDLTNNPQDDDSQSKMMSSQISSLIPHCITSITLALADAGIELVDMAGAGEANGTVVSFIKNGEEIVGFWKDDGDDEDLLECLDRCKEQYNRYRDLMISCLMNQET

Kd [2]: 50 nM
B2: GFP-Ski7_(exomut-1) (Trp125Asp, Ile128Asp) (domain or fragment)
chain: DDKLNLEESDKADKEMNHYCFLKNDPCINQTDDFAFTNFIIKDKKNSLSTSIPLSSQNSSFLSLKKHNNELLGIFVPCNLPKTTRKVAIENFNRPSPDDIIQSAQLNAFN

binding result [3]: binds
B3: GFP-Ski7_(exomut-3) (Ile189Asp, Phe190Asp) (domain or fragment)
chain: B2 chain with D10W, D13I, I74D, F75D

binding result [4]: binds
B4: Ski7 residues 116-235 (Exo9-interacting domain) (domain or fragment)
chain: DDKLNLEESWKAIKEMNHYCFLKNDPCINQTDDFAFTNFIIKDKKNSLSTSIPLSSQNSSFLSLKKHNNELLGIFVPCNLPKTTRKVAIENFNRPSPDDIIQSAQLNAFNEKLENLNIKS

binding result [3]: binds
B5: GFP-Ski7_(exomut-2) (Phe149Asp, Phe151Asp, Phe154Asp) (domain or fragment)
chain: B2 chain with D10W, D13I, F34D, F36D, F39D

Kd [2]: ~5 nM
B6: GFP-tagged Ski7exo (domain or fragment)
chain: B2 chain with D10W, D13I

Kd [2]: ~10 nM
B7: GFP-tagged Rrp6exo (GFP-Sumo-Rrp6C, Rrp6 residues 518-693) (domain or fragment)
chain: EATPIPSSETKADGILLETISVPQIRDVMERFSVLCNSNISKSRAKPVTNSSILLGKILPREEHDIAYSKDGLPNKVKTEDIRIRAQNFKSALANLEDIIFEIEKPLVVPVKLEEIKTVDPASAPNHSPEIDNLDDLVVLKKKNIQKKQPAKEKGVTEKDAVDYSKIPNILSNKPG

— publication PMC4942675 (Molecular Cell, 2016)
